Experiment: label from the status in PepcDB records

Sequence | protein production
MELFEFLLIKYGYIALILILTGGIVGLPIPDEVLLTLVGYYISLGKMSYVLALLASFLGATLGISISYFLGTKLGLPFLMKYGPKFHISHQKIDHAQALFRKYGPILLFIGYFLPGVRHVTGYLSGLSKCKFRTFSLYAYTGAFIWCLVFITLGHEIGNKWYIVEKYLFKSSFLLFLLILCVIGYFIVRNKRMEKNAEKK | failed
MEYSFYDFLKLIGSLGLFLYGMKIMSEGLQKVAGDRLRGILTAMTTNRVTGVLTGVLITALIQSSSATTVMVVSFVNAGLLTLAESISVIMGANIGTTVTAWIISIFGFKVDMAAFALPLLAIALPLIFSGKSNRKSIGEFIFGFSFLFMGLSYLKANAPDLNANPEMLAFVQNYTDMGFFSVLLFLFIGTILTMIVQASAATMAITLIMCANGWISLELGAALVLGENIGTTITANLAALTANSQAKRAALAHFVFNVFGVIWVLIIFHPFMVFVNWVVDTFFHPGSAEVAISYKLSAFHSIFNICNVCLLIWGVKLIERTVCAIIRPKEEDEEPRLRFITGGMLSTAELSILQARKEIHLFSERIHRMFGMVQDLLHTEKDDDFNKLFSRIEKYENISDNMELEIANYLNQVSEGRLSSESKLQIRAMLREVTEIESIGDSCYNLARTISRKRQTNQDFTEKQYEHIHFMMKLTNDALSQMIVVVEKPEHQSIDVNKSFNIENEINNYRNQLKNQNILDVNNKEYDYQMGVYYMDIIAECEKLGDYVVNVVEASSDVKEKKAS | failed
MNEADYLRLLTRQAEQANDFLSNARKWDRERWVCQRFLEALNVPYRQEDFAAPGEQPPDVLFKGAGFEVFFVLDEGRRLNEEWREELTRRRQAVSLRQLIRREERPQRIAAAELQARLAPTLRKKAHNYSERGIDHGELDLLAFVNLKRAVPDFNTPFPPPTEYLRQGWRSLSMVGPTFARVLFAHSGAPEFLRANLGRSILFDAGVGL | not failed
MLELDGSGAEPLRDGDPRWIGPIPLIGRLGSGGMGRVYLGVHEGRYAAVKQLLPSVVAEDEDFLRRFGHELDNLARLPGEATAPLLAGDREARPPWFATAYVPGLTLTEALEVHGGPLPAGALWLLLREAAKGLAAVHALDMVHRDLKPSNVMLTLEGLTLIDFGVARAAEQSRLTRTGMVVGTPAYMSPEQASGRRASSGAVDVFALGSVLAYAASGRPPFGDESGHAVLYRIVHEEPDLGPLRELDPELADVVASCLDKDHEGRPTAAELLETAERHGPYEPPLWPEALTERLTERAAFVTKLPERADLPEPEPEPERDPGPGPGSAVLGRRDPGRSDHRRRHRVLFAVVPVVVAAGATLAVQLLPYTFAPGDRADASPSSSAPVSSAPAASPAGPGKASRTATPDQDRSASPSRSPGEQGDRRGDADGGGGAAGGSQGDADAGGAGSGSGSGSGSAGDGGAGAGSGAGSGDGSGSDSGSGSGADSGSGAGSGSGSGSGSGSGDGGASGSGVFTLKNAKNGRCLTTAHADAPYDGDCTGDAATWTFRSRPDGTVWIINGLLGRCIYTAAIGHPVFSFPCGRTTGQEWRVGSGGTLKNAATGGCVTVSAMSGTGVRNEACEQSAAQRWTRS | failed
DDDEPGGKGAMYEVTIEQSGDFRSFIKSVVVVANGTQLKDGATGESLASPVILSDEELAVEKVTLSTTGKAIEFAVSGGVVDGEDGVVNEPMQWVVTVYKNGKEIEKKSLVFRDGKEISTDDLNLYYN | not failed
MKTIQPCSVEDIQSWLIDQFAQQLDVDPDDIDMEESFDNYDLNSSKALILLGRLEKWLGKELNPVLIFNYPTIAQLAKRLGELYL | not failed
MVESKNTELSQGTWLNKPKSVFQEAGKVTLETDEKTDFWRETFYGFTRDSGHFLGVETGSAFTAQVRVQGSYESLYDQAGIMVRIDDGHWLKAGIEISDGHAMLSSVLTNGKSDWSTAVYGGNARDFWLRVTVEKGVLRIQVSSDKKTWPLVRLAPFPTSDHYLVGPMACTPERGGLKVTFSEWSLTAPLGKALHDLS | failed
MLVAAQQQGPPMPRPSHLMILALTAAALYIYALASDNTMLALMAKPIPVLALIAWLRSTPVSPYRTWISIGLGFSVLGDILLAIPADLFVFGLAAFLCAHLAYLRGYCGITLRPALPALIFSAITGIALLGVLASNGLGPLLIPVALYALAISAMLWRALACGGVAALGAGLFVFSDSLIGIDRFISPFAAAPYLIILAYWLGQWAIASSVGHRSTDKVLTQSGARRTESC | failed
MTENTFTDPSWLRLSCFIGVLLLCNLWENKLPRKTLTVKRSFRWLNNLSLVALNSAIIALVMPIAAFQAAAIAHDQQWGLFNLLSLPGWLNVLLAVIVLDLIIYVQHLVFHRVKPLWKIHRMHHADLDIDVTTGARFHPIEIIISMVVKITSVFILGVSPLAIVVFEIILNASAMFNHSNAKLALSIDKKLRKVIVTPDMHRVHHSVMVKETHSNFGFFLSVWDRWFGTYRAQPALGHNDVVIGVPEIREASEQRLDKLLTQPFRYREGKGKNVD | not failed
MTDIRKAATLVVIRDGANKDIEVLVVRRAKTMRFLPGFVAFPGGAADPSDAEMAKRAFGRPVCAEDDDDPALAVTALRETAEEIGWLLAVRDGEGTKMDTPLAPDEQADLCKGGDALSAWLSARGLAFDLGLLRRIGRFVTPPTQPVRFDTRFFLCVGQHLGEPRLHGAELDAALWTPARDMLTRIQSGELPAVRPTIAVLKALVACPNAEIAMSTLSIGPLPPPAPRA | not failed
MKPRRKSALLWGAVAALSFLVLHQGYLLAGGAFLGVGPVAAVTVAVFVGGAAVSYYAEGRFGLFGWRR | failed
PISRLAQIQQARKEKEPDYILLSERGMPRRREFVMQVKVGNEVATGTGPNKKIAKKNAAEAMLLQLGYKASTSLQD | not failed
MDEQVIFTTNTSGTIASVHSFEQINLRQCSTQSRNSCVQVGNKYLFIAQAQKALINVYNLSGSFKRESVEQRLPLPEILKCLEVVENDGVQYDRIQGVNHNLPDFNLPYLLLGSTESGKLYIWELNSGILLNVKPMAHYQSITKIKSILNGKYIITSGNDSRVIIWQTVDLVSASNDDPKPLCILHDHTLPVTDFQVSSSQGKFLSCTDTKLFTVSQDATIRCYDLSLIGSKKKQKANENDVSIGKTPVLLATFTTPYSIKSIVLDPADRACYIGTAEGCFSLNLFYKLKGNAIVNLLQSAGVNTVQKGRVFSLVQRNSLTGGENEDLDALYAMGQLVCENVLNSNVSCLEISMDGTLLLIGDTEGKVSIAEIYSKQIIRTIQTLTTSQDSVGEVTNLLTNPYRLERGNLLFEGESKGKQPSNNNGHNFMKIPNLQRVIFDGKNKGHLHDIWYQIGEPEAETDPNLALPLNDFNAYLEQVKTQESIFSHIGKVSSNVKVIDNKIDATSSLDSNAAKDEEITELKTNIEALTHAYKELRDMHEKLYEEHQQMLDKQ | failed
MVTGYEALERHRGVRRPRRKLSRREKHAWKKAQKYELKLHKAHEKEERKLAKQAAKQAAREEKAAQKQAKKAERHKKKTKPPGSVKSSGKKGVAKKISSTNKDSRNKGKNITAQQSIPYREMGKDGICRVEDGYYSKTIRFYDINYQLAQNEDKNAIFENWCDFLNYFDSTIHFQLSFINHHSNMTEYEDVIRIKKQNDSFDDLRMEFAQMLRNQLAKGNNGLIRTKYITFGIEADNIREAKPKLERIETDILNNFKVFGVSAYPLNGAERLQIMYETFNQNVKVPFRFSYDDMLRTGLNTKDYIAPSSFLFKNGKDFQMGDTVGAVSYLQILAPELTDKMLAEFLEMDCNLLVNLHIQSIDQMKAIKLVKSKVTDINRMKIEEQKKAVRSGYDMDIIPSDLNTYGGEAKRLLEDLQSRNERMFLVTVVFLNTAKNKQELENVVFQTAGIAQKYNCALKRLDYQQEQGLMSSLPLGRNWIPIKRALTTTSTAIFVPFTTQELFMGGESIYYGLNALSNNLIMADRKKLKNPNGLILGTPGSGKSFAAKREITNVFIVTKDDIIICDPEGEYFPLVRAFNGQVIRISPTSHDYINPMDININYADDDDPLSLKSDFILSLCELVVGGKNGLEPVEKTIIDRCVRLVYQDYLADPVPEKMPILEDLYNLLRKQEEAESQRLATALEIYVNGSLKVFNHRTNVELNNRLVCFDIKDLGKQLKKLGMLIVQDQVWNRVTVNRSAHKSTRYYIDEFHLLLKEEQTAAYSVEIWKRFRKWGGIPTGITQNVKDLLASREIENIFENSDFILMLNQASGDRQILAKQLNISTHQLSYVTNSGEGEGLIFYGNTIIPFKDRFDNTLMLYALMSSKPEDVEKREKLGIKGRDDS | failed
MSLSVLDAPASQPCCPTGVTPEPSSRGPSARRVALLLAGALVAWIVAYAAAHPLSRWLTFGLLGLAEGSHLGESLAFFLYDVPKVLLLLTLIVFLVGIVRSFFTAERTRAILVGKRESVGNVVAALLGVVTPFCSCSAIPLFLGFVEVGVPLGVTFSFLVSAPMVNEVALVLLLGLFGWKVAALYLVTGLTIAILAGFVLGRMKLERHVEPWVYESMKGEARFEKEHLGFAGRVERGLQAVREVVGKVWPWVVAGIAVGAGIHGYVPEGLLASFMGKSAWWSVPAAVALGVPMYSNAAGIIPVVEALLGKGAALGTVLAFMMAVIGLSLPEIVILRKVLRPPLILAFVGVVASGILLVGWLFNAVL | failed
MHTEQALHTRIADIVESIILKKVTPDTALISSGLVDSLAAVDITLAVESEYGCSIPAPEIAEHLQSVRTLAGYVAANSQ | failed
MSLMIKVEDMMTRHPHTLLRTHTLNDAKHLMEALDIRHVPIVDANKKLLGIVSQRDLLAAQESSLQRSAQGDSLAFETPLFEVMHTDVTSVAPQAGLKESAIYMQKHKIGCLPVVAKDVLVGIITDSDFVTIAINLLELQEESEPDELDEEQEGHHHHHH | not failed
MSALPSYTQNGQTITFAFAQPLQLTIVTPEIIRVFINRGEQGESYAIEGHKIQATDFTIESAGDHYIIRTSALTIHLDSERHLDTFDKDGNALITLEHHHHHH | not failed
MNLPILPTISTSFIVISAILIAIGWRQIWKRKIESHKKVMLAAAFFALAFFIIYASRTIFIGNTAFGGPDSIKIYYTIFLIFHINLATIGGILGLVQIITAFKDKFKVHRFVGPIASIVWFCTAITGVAVYLLLYVLYPGGETTSLLKATFGL | failed
MATAGSSYSVSTDHQVSSPLVNLGNVAGVCIMSNAWKVEQEPSLINFISAFLSANSFRLNFVSIPPDLIFNCGGVSIAFVFVTKWDFSNVASIFSRVKRLKGQFAQLYVVATLSTKEQSDSFMRSYFQYEMEFGKPAFVQVTDAEMGFEKIVKIAHSRGVCKQQKVASKLKVERKRTVQDTNIFIRFVTSIPNINKHDANTVMFTYEQVQVLYQAIGSIEAIAKASKEDILANTDLSSKKADTLTRFFQDPEFYLSPKFN | failed
MTYLQTTADFYAEVAQTPEVGLCCVQSSPLQLPGLVIPAVMQEMNYGCGSTVHPNELGNKSKVLYVGVGGGLEALQFAYFCRQPGAVIAVDPVEAMRQAAQRNLQLAAEKNDWFSVDFVDIRAGDAFTLPVPDNSVDVVAQNCLFNIFEPEDLSRALKEAYRVLKPHGRLIMSDPIAARPIPQHLRQDERLRAMCLSGALTYAEYIQHLIDTGFGQIEIRARRPYRLLDSVTYKLDENLLLESLDSVSFKVPIPSDGACVFTGKTAIYAGSDPLFDDQAGHILQQGVPSAVCDKTALNLGSTYPNKILITDSTWYYDGGGCC | failed
MVVADGHDLQESPLRWIPFLAVFLYVYIEISIFIQVAHVLGVLMTLILVIFTSVIGMSLVRNQGFKNFLLMQQKMAAGESPAAEMIKSVSLIIAGLLLLLPGFFTDFLGLLLLLPPVQKHLTLKLLPHLRFSRMPGGGFSAGTGGGETFDGEYQRKDDDRDRIEHKDDRRD | failed
MAELILNQRPYPRDLGKIVCVGRNYAAHAKELNNPIPSSPILFIKPASSAVPFGPVFSIPKDQGSVHHELEIAILIGKALSRASTEQVAESIAGIGLGLDLTLRDVQDQLKEKGHPWERAKSFDGACPLTEFVAVNLASEDEWQAIGLTLEKNGQFQQQGSSAEMLFPILPLIAHMSEHFSLQPGDVILTGTPAGVGPLEVGDSLSAKLSLEDNVLLTCDGVVI | not failed

— a protein production outcome set (Wang et al. 2014)
